Results from article PMC10405735.

How the values were obtained:
[1] = molecular target: CCL20 (Mus musculus) (UniProt O89093); settings: cited from earlier work
[2] = molecular target: human GPR182 (hGPR182), expressed from hGPR182 T2A GFP in 300.19 pre-B cells (human) (UniProt O15218); assay: flow cytometry on cells; competition scavenging at 37°C: 300.19 cells expressing mGPR182 or hGPR182 with 3 nM fluorescent chemokine and increasing concentrations of its unlabeled counterpart, 45 min
[3] = molecular target: murine GPR182 (mGPR182), expressed from mGPR182 T2A GFP in 300.19 pre-B cells (mouse) (UniProt P43142); assay: as above

| Substance | Kd [1] [nM] | Kd (competition scavenging) [2] [nM] | Kd (competition scavenging) [3] [nM] |
| --- | --- | --- | --- |
| ACKR4 (from UniProt Q924I3) | 800 | – | – |
| hCXCL12, unlabeled (from UniProt P48061 22-93) (ligand) | – | 85 | 60 |
